Measurements as given in US20220003777A1.

Biological target: C1 esterase inhibitor, human plasma-derived (human) (UniProt P05155)
Experiment: Western blot of serially diluted C11NH/BSA probed with 20 µg/mL StcE E447D

Sequence of C1 esterase inhibitor, human plasma-derived (human) (P05155 23-500 limits assumed): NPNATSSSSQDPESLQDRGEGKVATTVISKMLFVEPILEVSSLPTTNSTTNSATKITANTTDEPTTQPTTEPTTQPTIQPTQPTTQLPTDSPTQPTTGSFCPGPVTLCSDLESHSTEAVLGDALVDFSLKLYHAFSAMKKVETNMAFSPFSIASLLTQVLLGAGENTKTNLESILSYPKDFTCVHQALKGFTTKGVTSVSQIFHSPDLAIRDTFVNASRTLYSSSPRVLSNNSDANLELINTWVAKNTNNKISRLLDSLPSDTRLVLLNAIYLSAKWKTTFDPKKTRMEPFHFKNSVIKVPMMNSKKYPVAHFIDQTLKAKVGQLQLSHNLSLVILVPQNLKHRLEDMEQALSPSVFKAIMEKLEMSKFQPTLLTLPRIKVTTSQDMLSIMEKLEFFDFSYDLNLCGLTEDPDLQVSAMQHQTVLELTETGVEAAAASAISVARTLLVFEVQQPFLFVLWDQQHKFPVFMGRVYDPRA

Work on “StcE E447D, catalytically inactive point mutant of StcE, N-terminal His-tagged (from UniProt O82882 36-898) (enzyme; other documents disagree on this pair)” yielded a lowest amount of C11NH with visible signal of 0.03 µg.
